Reference: US20120082661A1 (Biogen, published 2012)

T1: human BCMA (B cell maturation antigen) (human, UniProt Q02223 1-184)
T1 chain: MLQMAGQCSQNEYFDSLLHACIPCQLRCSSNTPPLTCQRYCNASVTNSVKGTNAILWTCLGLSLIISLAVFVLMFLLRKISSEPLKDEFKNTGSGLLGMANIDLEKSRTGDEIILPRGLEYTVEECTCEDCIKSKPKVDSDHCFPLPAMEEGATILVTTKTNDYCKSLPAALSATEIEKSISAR

B1: chC12A3.2 (antibody, human IgG1, kappa, V domains shown)
VH: QIQLVQSGPELKKPGETVKISCKASGYTFRHYSMNWVKQAPGKGLKWMGRINTESGVPIYADDFKGRFAFSVETSASTAYLVINNLKDEDTASYFCSNDYLYSLDFWGQGTTLTVSS
VL: DIVLTQSPPSLAMSLGKRATISCRASESVTILGSHLIYWYQQKPGQPPTLLIQLASNVQTGVPARFSGSGSRTDFTLTIDPVEEDDVAVYYCLQSRTIPRTFGGGTKLEIKR
B2: chC11D5.3 (antibody, human IgG1, kappa, V domains shown)
VH: QIQLVQSGPELKKPGETVKISCKASGYTFTDYSINWVKRAPGKGLKWMGWINTETREPAYAYDFRGRFAFSLETSASTAYLQINNLKYEDTATYFCALDYSYAMDYWGQGTTLTVSS
VL: DIVLTQSPPSLAMSLGKRATISCRASESVTILGSHLIHWYQQKPGQPPTLLIQLASNVQTGVPARFSGSGSRTDFTLTIDPVEEDDVAVYYCLQSRTIPRTFGGGTKLEIKR
B3: chC13F12.1 (antibody, human IgG1, kappa, V domains shown)
VH: QIQLVQSGPELKKPGETVKISCKASGYTFTHYSMNWVKQAPGKGLKWMGRINTETGEPLYADDFKGRFAFSLETSASTAYLVINNLKNEDTATFFCSNDYLYSCDYWGQGTTLTVSS
VL: DIVLTQSPPSLAMSLGKRATISCRASESVTILGSHLIYWYQQKPGQPPTLLIQLASNVQTGVPARFSGSGSRTDFTLTIDPVEEDDVAVYYCLQSRTIPRTFGGGTKLEIKR
B4: chA7D12.2 (antibody, human IgG1, kappa, V domains shown)
VH: QIQLVQSGPDLKKPGETVKLSCKASGYTFTNFGMNWVKQAPGKGFKWMAWINTYTGESYFADDFKGRFAFSVETSATTAYLQINNLKTEDTATYFCARGEIYYGYDGGFAYWGQGTLVTVSA
VL: DVVMTQSHRFMSTSVGDRVSITCRASQDVNTAVSWYQQKPGQSPKLLIFSASYRYTGVPDRFTGSGSGADFTLTISSVQAEDLAVYYCQQHYSTPWTFGGGTKLDIKR

Legend:
[1] = biological target: T1, human BCMA (B cell maturation antigen); assay: cell-based or functional assay
[2] = biological target: T1, human BCMA (B cell maturation antigen); assay: cell-based or functional assay

Row | Binder | % Killing at 1 nM (ADCC of JJN-3 cells, PBMC effectors, LDH release) [1] [%] | % Killing at 1 nM (ADCC of U266 cells, PBMC effectors, LDH release) [2] [%]
1 | B1 | 5 | 32
2 | B2 |  | 18
3 | B3 | 3 | 20
4 | B4 | 20 | 10
